Results: patent publication US20230133775A1

Target: Leucine-rich repeat-containing protein 15 (LRRC15) on LRRC15-expressing cells (UniProt Q8TF66)
Experiment: cell-based or functional assay

Chain of Leucine-rich repeat-containing protein 15 (LRRC15) on LRRC15-expressing cells (Q8TF66 22-581 limits assumed): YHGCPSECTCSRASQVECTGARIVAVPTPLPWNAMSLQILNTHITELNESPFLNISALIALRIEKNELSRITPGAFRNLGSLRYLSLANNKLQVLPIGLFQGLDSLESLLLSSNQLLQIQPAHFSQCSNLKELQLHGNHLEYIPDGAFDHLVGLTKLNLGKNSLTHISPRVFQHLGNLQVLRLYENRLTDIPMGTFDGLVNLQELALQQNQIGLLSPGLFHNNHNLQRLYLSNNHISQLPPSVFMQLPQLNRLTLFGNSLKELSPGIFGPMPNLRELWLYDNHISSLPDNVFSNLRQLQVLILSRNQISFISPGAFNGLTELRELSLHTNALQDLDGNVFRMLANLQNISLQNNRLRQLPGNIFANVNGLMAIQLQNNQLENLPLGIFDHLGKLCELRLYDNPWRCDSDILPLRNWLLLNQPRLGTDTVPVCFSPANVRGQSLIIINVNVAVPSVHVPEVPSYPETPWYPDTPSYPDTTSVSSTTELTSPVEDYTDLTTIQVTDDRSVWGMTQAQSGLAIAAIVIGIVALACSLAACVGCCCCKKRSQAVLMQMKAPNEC

## non-specific low fucose isotype control (IgG1-LF) (antibody)
  target cell death in the ADCC assay with NK92-CD16 effector cells: < 30%
